Source: paper PMC5793882 (Cell, 2018)

Biological target: the molecule itself
Experiment: negative-stain electron microscopy

B1: Drosophila Arc1 protein (natural protein, UniProt Q7K1U0 1-254, looked up)
chain: MAQLTQMTNEQLRELIEAVRAAAVGAAGSAAAAGGADASRGKGNFSACTHSFGGTRDHDVVEEFIGNIETYKDVEGISDENALKGISLLFYGMASTWWQGVRKEATTWKEAIALIREHFSPTKPAYQIYMEFFQNKQDDHDPIDTFVIQKRALLAQLPSGRHDEETELDLLFGLLNIKYRKHISRHSVHTFKDLLEQGRIIEHNNQEDEEQLATAKNTRGSKRTTRCTYCSFRGHTFDNCRKRQKDRQEEQHEE
B1: binds.
